# Experiment: yeast display, Sf9 membrane polyspecificity reagent, FACS + sequencing; frameworks hold sequencing errors
# Summary of the method: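 Nanobodies from a synthetic yeast display library (Saccharomyces cerevisiae BJ5465), induced 36–48 hours with galactose, were stained 1 hour at 4 °C with 10% biotinylated, detergent-solubilized Sf9 membrane reagent, enriched on streptavidin microbeads, then FACS-sorted. Anti-HA (expression) and streptavidin (reagent binding) fluorescence set low and high (top ~1%) gates. Polyreactivity labels come from the gate of origin. Genes were colony-PCR amplified, MiSeq 2 × 250 sequenced and filtered by CDR length.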
row,Sequence,polyreactivity (PSR sort gate)
1,QVQLVESGGGLVQAGGSLRLSCAASGRTFVSNVMGWYRQAPGKERELVAAINWSGDSTYYADSVKGRFTISRDNAKNTVYLQMNSLKPEDTAVYYCARRNPLGGNEHDYWGQGTQVTVSS,low polyreactivity
2,QVQLVESGGGLVQAGGSLRLSCAASGRTFVSYTMGWYRQAPGKERELVAAISSGGSTTYADSVKGRFTISRDNAKNTVYLQMNSLKPEDTAVYYCNARYGWSYWSKYDYWGQGTQVTVSS,high polyreactivity
3,QVQLVESGGGLVQAGGSLRLSCAASGRTFVSYVMGLYRQAPGKERELVAAITWRGGSTYYADSVKGRFTISRDNAKNTVYLQMNSLKPEDTAVYYCNADYRYIWTYWGWTIYDYWGQGTQVTVSS,high polyreactivity
4,QVQLVESGGGLVQAGGSLRLSCAASGRTFVTNAMGWYRPAPGKERELVPAISSNGGSTYYADSVKGRFTISRDTAKNTVYLQMNSLKPEDTAVYYCNAEGQPLYWWDHGNYWGQGTQVTVSS,low polyreactivity
5,QVQLVESGGGLVQAGGSLRLSCAASGRTFVTYAMGWYRQAPGKERELVAGIRRGGSTYYADSVKGRFTISRDNAKNTVYLQMNSLKPDDPAVYDCAKTFYAHRAYTSYTARPYDYWGQGTQVTVSS,high polyreactivity
6,QVQLVESGGGLVQAGGSLRLSCAASGRTFVTYAMGWYRQAPGKERELVAVITNGGGTYYADSVKGRFTISRDNAKNTVYLQMNSLKPEDTALYYCNNDRYGLRRWVYSYLGGYDYWGQGTQVTVSS,low polyreactivity
7,QVQLVESGGGLVQAGGSLRLSCAASGRTFVTYVMGWYRQAPGKEREFVAAIRWSGGRTYYADSVKGRFTISRDNAKNTVYLQMNSLKPEDTAVYYCAAVYYDRSYRYEYWGQGTQVTVSS,high polyreactivity
8,QVQLVESGGGLVQAGGSLRLSCAASGRTFVYNAMGWYRQAPGKERELVAAIDGGGDRTYYADSVKGRFTISRDNAKNTVYLQMTSLNPEDTAVYYCARDPGDTYYYSYPEGDYWGQGTQVTVSS,low polyreactivity
9,QVQLVESGGGLVQAGGSLRLSCAASGRTFVYYAMGWYRQAPGKERELVASISSNGGTYYADSVKGRFTISRDNAKNTVYLQMNSLKPEDTAVYYCNAKRVARYQYGASYNYWGQGTQVTVSS,high polyreactivity
10,QVQLVESGGGLVQAGGSLRLSCAASGRTFVYYAMGWYRQAPGKERELVATITRSGGSTYYADSVKGRFTISRDNAKNTVYLQMNSLKPEDTAVYYCAVLYWRPGYDYWGQGTQVTVSS,high polyreactivity
11,QVQLVESGGGLVQAGGSLRLSCAASGRTFVYYAMGWYRQAPGTERELVAAISTGGSTNYADSVKGRFTISRDNAKNSVYLQMNSLKPEDTAVYYCAAQYYISISKYDYWGQGTQVTVSS,low polyreactivity
12,QVQLVESGGGLVQAGGSLRLSCAASGRTFVYYAMVWSRQAPGKEREFVAAISRSGGRTSYADSVKGRFTISRDNAKNTVYLQMNSLKPEDTAVYYCAAENRTQPTSREYYWGQGNQVTVSS,high polyreactivity
13,QVQLVESGGGLVQAGGSLRLSCAASGRTFVYYTRGWYRPAPGKERELVAAISWNGDDTYYADSVKGRFTISRDNAKNTVYLQMNSLKPEDTAVYYCAKESYTDYDTYYYWGQGTQVTVSS,low polyreactivity
14,QVQLVESGGGLVQAGGSLRLSCAASGRTFVYYVMGWYRQAPGKERELVAGISRGGSTDYADSVKGRFTISRDNAKNTVYLQMNSLKPEDTAVYYCNRLLRRHLYIFYYWGQGTQVTVSS,high polyreactivity
15,QVQLVESGGGLVQAGGSLRLSCAASGRTFWGYAMGWYRPAPGKERELVAAISSGGDTTYADSVKGRFTISRDNAKNTVYLQMNSLKPEDTAVFYCAADRWYSRYTRYGYWGQGTQVTVSS,low polyreactivity
16,QVQLVESGGGLVQAGGSLRLSCAASGRTFWNYAMGWYRQAPGKERELVAVIRFSDGSTYYADSVKGRFTISRDNAKNTVYLQMKSLKPEDTAVYYCGAKGQRRWGSGFDYWGQGTQVTVSS,low polyreactivity
17,QVQLVESGGGLVQAGGSLRLSCAASGRTFWPNVMGWYRQAPGKERELVAALTWGDASTYYADSVKGRFTISRDNAKYTVYLQMNSLKPEDTAVYYCAASDYRRTYDYWGQGTQVTVSS,low polyreactivity
18,QVQLVESGGGLVQAGGSLRLSCAASGRTFWPYAMGWYRQAPGKERELVAAITSDGSTTYADSVTGRFTISRDNAKNTVYLQMNSLTPEDTAVYYCAAYGYYYDQTIPMDYWGQGTQVTVSS,low polyreactivity
19,QVQLVESGGGLVQAGGSLRLSCAASGRTFWRNAMGWYRPAPGKERELVAVISVRGSSTSYADSVKGRFTISRDNAKNNVYFQMNILKPEDTGVYYCAAGRRYRSVGYGYWGQGTQLTVSS,high polyreactivity
20,QVQLVESGGGLVQAGGSLRLSCAASGRTFWRNAMGWYRQAPGKERELVAAISRGASTNYADSVKGRYTISRDNAKNTVYLQMNSLKPEDTAFYYCAARYYYRYNYWGQGTQVTVSS,high polyreactivity
21,QVQLVESGGGLVQAGGSLRLSCAASGRTFWRNAMGWYRQAPGKERELVAAISRGGSTKYADSVKGRFTISRDNAKNTVYLQMNSLKPEDTAVYYCAAATPGRYGYWGQGTQVTVSS,high polyreactivity
22,QVQLVESGGGLVQAGGSLRLSCAASGRTFWRYVMGWYRQAPGKERELVASITRSGGTTNYADSVKGRFTISRDIAKNTVYLQMNSLKPEDTAVYYCNARTVYSWSREYNYWGQGTQVTVSS,high polyreactivity

row,Sequence,polyreactivity (PSR sort gate)
1,QVQLVESGGGLVQAGGSLRLSCAASGRTFWSYAMGWYRQAPGKERELVAAINSGGSTYYADSVKGRFTISRDNAKNTVYLQMNSLKPEDTAVYYFAADTWYGFDWGQGTQVTVSS,high polyreactivity
2,QVQLVESGGGLVQAGGSLRLSCAASGRTFWTYAMGWYRQAPGKERELVASISKSGGSTYADSVKGRFTISRDNAKNTVYLQMNSLKPEDTAVYVCAAYPYFSKGWGWYPYDYWGQGTQVTVSS,low polyreactivity
3,QVQLVESGGGLVQAGGSLRLSCAASGRTFWVYAMGWYRQAPGKERELVAAINTGGSTTYADSVKGRFTISRDNAKNTVYLQMNSLKPEDTAVYYCAADTWWYGKYDYWGQGTQVTVSS,low polyreactivity
4,QVQLVESGGGLVQAGGSLRLSCAASGRTFWVYAMGWYRQAPGKERELVAAISWRAGSTYYADSVKGRFTISRDNAKNTVYLLMNSLKPEVTAVYYCAAETYTTLDYWGQGTQVTVSS,high polyreactivity
5,QVQLVESGGGLVQAGGSLRLSCAASGRTFWVYAMGWYRQAPGKERELVASISWSVGSTYYADSVKGRFTISRDNAKNTVYLQMNSLKPEDTAVYYCAVDPATNVEGDYWGQGTQVTVSS,low polyreactivity
6,QVQLVESGGGLVQAGGSLRLSCAASGRTFWYYAMGWYRPAPGKERELVATITGGARTTYADSVKGRFTISRDNAKNTVYLQMNSLKPEDTAVYYCARARNSVKRGYYYWGQGTQVTVSS,high polyreactivity
7,QVQLVESGGGLVQAGGSLRLSCAASGRTFWYYAMGWYRQAPGKEREFVAAISYSGDGTYYADSVKGRFTISRDNAKNTVYLQMNSLKPEDTAVYYCAAEWYDPTLPTAWSEYEYWGQGTQVTVSS,high polyreactivity
8,QVQLVESGGGLVQAGGSLRLSCAASGRTFWYYAMGWYRQAPGKERELVAASTYRGGSTYYADSVKGRFTISRDNVKNTVYLQMNSLKPEDTAVYYCAAPYGEDYWRQGTQVTVSS,high polyreactivity
9,QVQLVESGGGLVQAGGSLRLSCAASGRTFWYYAMGWYRQAPGKERELVATISYRGGSTYYADSVKGRFTISRDNAKNTVYLQMNSLKPEDTAVYYCAAKQWWGGRPKVDYWGQGTQVTVSS,high polyreactivity
10,QVQLVESGGGLVQAGGSLRLSCAASGRTFWYYAMGWYRQAPGKERELVAYADSVKGRFTISRDNAKNTVYLQMNSLIPEDTAVYYCAVGPVVWFSSSLYYTDYYYWGQGTQVTVSS,low polyreactivity
11,QVQLVESGGGLVQAGGSLRLSCAASGRTFWYYAMGWYRQSPGKERELVAVITSGSSTYYADSVKGRFTISRDNAKNTDYLQMTSLKPEDTAVYYCAVGRTYRRYSAASYNYWGQGTQVTVSS,high polyreactivity
12,QVQLVESGGGLVQAGGSLRLSCAASGRTFWYYPMGWYRQAPGKEREFVAAISWSGGSTYYADSVKGRFTISRDNAKNTVYLQMNSLKPEDTAVYYCAADRYDSSQFYYWGQGTQVTVSS,low polyreactivity
13,QVQLVESGGGLVQAGGSLRLSCAASGRTFWYYTMGWYRQAPGKERELVAAISGSGGRTYYADSVKGRFTISRDNAKNTVYLQMNSLKPEDTAVYYCAARRAYFVAYIYDRDYWGQGTQVTVSS,high polyreactivity
14,QVQLVESGGGLVQAGGSLRLSCAASGRTFWYYTMGWYRQAPGKERELVAAISSGGTTNYADSVKGRFTISRDNAKNTVYLQMNSLKPEDTAVYYCAAEANSGDGYYWGQGTQVTVSS,high polyreactivity
15,QVQLVESGGGLVQAGGSLRLSCAASGRTFWYYTMGWYRQAPGKERELVASISRVTSTYYADSVKGRLTISRDNAKNTVYLQMNSLKPEDTAVYYCAADRTRYYVGYRWTGNKMDYWGQGSQVTVSS,low polyreactivity
16,QVQLVESGGGLVQAGGSLRLSCAASGRTFWYYTMGWYRQAPGKEWELVAAIRASGGGTYADSVKGLFTISRDNAKNTVYLQMNSLNPEDTAVYYCAVRNVYGWYGSRDYWGQGTQVTVSS,high polyreactivity
17,QVQLVESGGGLVQAGGSLRLSCAASGRTFYANTMGWYRQAPGKERELVAGITSGGSTSYADSVKGRFTISRDNAKNTVYLQMNSLKPVDTAVYYCAAQFYRYTATGYYADGYWGQGTQVTVSS,low polyreactivity
18,QVQLVESGGGLVQAGGSLRLSCAASGRTFYAYAMGWYRQAPGKERELVAAITSGASTYYADSVKGRFTISRDNAKNTVYLQMISLKPEDTAVYYCAKRVRYYKPGYDYWGQGTQVTVSS,low polyreactivity
19,QVQLVESGGGLVQAGGSLRLSCAASGRTFYAYTMGWYRQAPGKERELVAAISSSGGSTYYADSVKGRFTISRDNAKNTVYLQMNSLKPEDTAVYYCAAVWYFNRRVSGYYYWGQGTQVTVSS,high polyreactivity
20,QVQLVESGGGLVQAGGSLRLSCAASGRTFYDNAMRWYRQAPGKERELDAAITNGGRTNYADSVKGRFTISRDNAKNTVYLQMNSLKPEDTAVYYCAADFWPWYRYYSGGVDYWGQGTQVTVSS,high polyreactivity
21,QVQLVESGGGLVQAGGSLRLSCAASGRTFYDYAMGWYRQAPGKEREFVARITYSGGGTYYADSVKGRFTISRDNAKNTVYLQMNSLKPEDTAVYYCARPFIRYLGLTRNGYTSDYWGQGTQVTVSS,high polyreactivity

# Reference: the nanobody polyreactivity screen of Harvey et al. (2022)
